According to publication PMC1636342:
Like-named read-outs stand apart in the source and are kept apart here.

Tests used:
Experiment in all cases: tryptophan fluorescence quenching
Bs-CspB [1] = target: T1, Bs-CspB (Bacillus subtilis, UniProt P32081 1-67)
Bs-CspB [2] = target: T1, Bs-CspB; remark: listed apart in the source
Bs-CspB [3] = target: T1, Bs-CspB; remark: listed apart in the source
Bs-CspB [4] = target: T1, Bs-CspB; remark: listed apart in the source
Bs-CspB D25A = Bs-CspB D25A (Bacillus subtilis, UniProt P32081 1-67, D25A)
Bs-CspB F27A = Bs-CspB F27A (Bacillus subtilis, UniProt P32081 1-67, F27A)
Bs-CspB K7A = Bs-CspB K7A (Bacillus subtilis, UniProt P32081 1-67, K7A)
Bs-CspB F30W = Bs-CspB F30W (Bacillus subtilis, UniProt P32081 1-67, F30W)
Bs-CspB G54P = Bs-CspB G54P (Bacillus subtilis, UniProt P32081 1-67, G54P)
Bs-CspB Q59A = Bs-CspB Q59A (Bacillus subtilis, UniProt P32081 1-67, Q59A)
Bs-CspB P58A = Bs-CspB P58A (Bacillus subtilis, UniProt P32081 1-67, P58A)
Bs-CspB R56A = Bs-CspB R56A (Bacillus subtilis, UniProt P32081 1-67, R56A)
Bs-CspB K13Q = Bs-CspB K13Q (Bacillus subtilis, UniProt P32081 1-67, K13Q)
Bs-CspB F15A = Bs-CspB F15A (Bacillus subtilis, UniProt P32081 1-67, F15A)
Bs-CspB F17A = Bs-CspB F17A (Bacillus subtilis, UniProt P32081 1-67, F17A)
Bs-CspB F38A = Bs-CspB F38A (Bacillus subtilis, UniProt P32081 1-67, F38A)
Bs-CspB F15Y = Bs-CspB F15Y (Bacillus subtilis, UniProt P32081 1-67, F15Y)
Bs-CspB G35A = Bs-CspB G35A (Bacillus subtilis, UniProt P32081 1-67, G35A)
Bs-CspB G54A = Bs-CspB G54A (Bacillus subtilis, UniProt P32081 1-67, G54A)
Bs-CspB H29Q = Bs-CspB H29Q (Bacillus subtilis, UniProt P32081 1-67, H29Q)
Bs-CspB G35P = Bs-CspB G35P (Bacillus subtilis, UniProt P32081 1-67, G35P)
Bs-CspB F30A = Bs-CspB F30A (Bacillus subtilis, UniProt P32081 1-67, F30A)
Bs-CspB [5] = target: T1, Bs-CspB; remark: listed apart in the source
Bs-CspB [6] = target: T1, Bs-CspB; remark: listed apart in the source
Bs-CspB [7] = target: T1, Bs-CspB; remark: listed apart in the source

For CTTTTTC (ssDNA), the Kd (Bs-CspB [1]) was 33.7 ± 4.1 nM.

ATCCTACTGATTGGCCCAGGTGCTG (ssDNA) [Y-box25] gave a Kd (Bs-CspB [2]) of 3.92 ± 0.045 µM.

For TTATTAG (ssDNA) [dcb1], the Kd (Bs-CspB [3]) was 20 ± 3 nM.

With ATTGG (ssDNA) [Y-box5] the Kd (Bs-CspB [3]) was 5300 ± 1000 nM.

TTTTTTT (ssDNA) [dT7] showed a Kd (Bs-CspB [4]) of 1.8 ± 0.4 nM, a Kd (Bs-CspB D25A) of 21.4 ± 0.5 nM and a Kd (Bs-CspB F27A) of 286 ± 7 nM. For the same binder, the Kd (Bs-CspB K7A) was 6.4 ± 0.6 nM, the Kd (Bs-CspB F30W) was 1.3 ± 0.3 nM and the Kd (Bs-CspB G54P) was 220 ± 9 nM. It also gave a Kd (Bs-CspB Q59A) of 2.7 ± 0.4 nM, a Kd (Bs-CspB P58A) of 1.3 ± 0.2 nM and a Kd (Bs-CspB R56A) of 11.8 ± 1.4 nM. For the same binder, the Kd (Bs-CspB K13Q) was 25 ± 3 nM, the Kd (Bs-CspB F15A) was 135 ± 4 nM and the Kd (Bs-CspB F17A) was 345 ± 63 nM. It also gave a Kd (Bs-CspB F38A) of 228 ± 9 nM, a Kd (Bs-CspB F15Y) of 1.4 ± 0.4 nM and a Kd (Bs-CspB G35A) of 1.1 ± 0.3 nM. It also gave a Kd (Bs-CspB G54A) of 1.3 ± 0.3 nM, a Kd (Bs-CspB H29Q) of 104 ± 6 nM and a Kd (Bs-CspB G35P) of 118 ± 5 nM. The Kd (Bs-CspB F30A) was 208 ± 11 nM.

In the case of CTCTTTC (ssDNA), the Kd (Bs-CspB [1]) is reported as 3.9 ± 0.2 nM.

GGATAAGAACGAG (ssDNA) [dcb1_br] was tested, and the Kd (Bs-CspB [5]) was 1090 ± 110 nM.

In the case of GAGCAAGAATAGG (ssDNA) [dcb1_b], the Kd (Bs-CspB [5]) is reported as 1160 ± 90 nM.

Binder ATTATTTTTGTTC (ssDNA) [dcb1_a] has a Kd (Bs-CspB [5]) of 44 ± 2 nM.

For GAGTTTTGGTCTTGAA (ssDNA) [dcb2_b], the Kd (Bs-CspB [5]) was 43 ± 2 nM.

CTCTCTC (ssDNA) showed a Kd (Bs-CspB [1]) of 10.8 ± 0.9 nM.

AAGTTCTGGTTTTGAG (ssDNA) [dcb2_br] was tested, and the Kd (Bs-CspB [5]) was 30 ± 2 nM.

GTTTTGTAAGAGT (ssDNA) [dcb2ds_13] showed a Kd (Bs-CspB [5]) of 66 ± 21 nM.

CTCTTCC (ssDNA) gave a Kd (Bs-CspB [1]) of 66.2 ± 4.8 nM.

With CTCCTTC (ssDNA) the Kd (Bs-CspB [1]) was 12.5 ± 0.6 nM.

With TATTGGT (ssDNA) [Y-box7] the Kd (Bs-CspB [6]) was 530 ± 50 nM.

For TTTTTT (ssDNA) [dT6], the Kd (Bs-CspB [3]) was 326 ± 20 nM.

Binder TTTAAGAAGAAAGTTTT (ssDNA) [dcb2_a] has a Kd (Bs-CspB [5]) of 460 ± 34 nM.

CCCCCC (ssDNA) [dC6] was tested, and the Kd (Bs-CspB [3]) was 12600 ± 1000 nM.

For CTGATTGGCCAA (ssDNA) [Y-box12], the Kd (Bs-CspB [7]) was 2030 ± 390 nM.
